One block for each binder: values may come before it.
Key:
[1] = target: T1, membrane-bound human carcinoembryonic antigen (CEA) (human, UniProt P06731 35-685, GPI anchor at the C-terminus of the mature chain; heavily N-glycosylated. Neither can be carried in the letters.); assay: flow cytometry on MKN45 target cells, antibodies as IgG [top panel]
T1 construct: Target of the flow cytometry experiments; also called CEACAM-5; CD66e
T1 sequence: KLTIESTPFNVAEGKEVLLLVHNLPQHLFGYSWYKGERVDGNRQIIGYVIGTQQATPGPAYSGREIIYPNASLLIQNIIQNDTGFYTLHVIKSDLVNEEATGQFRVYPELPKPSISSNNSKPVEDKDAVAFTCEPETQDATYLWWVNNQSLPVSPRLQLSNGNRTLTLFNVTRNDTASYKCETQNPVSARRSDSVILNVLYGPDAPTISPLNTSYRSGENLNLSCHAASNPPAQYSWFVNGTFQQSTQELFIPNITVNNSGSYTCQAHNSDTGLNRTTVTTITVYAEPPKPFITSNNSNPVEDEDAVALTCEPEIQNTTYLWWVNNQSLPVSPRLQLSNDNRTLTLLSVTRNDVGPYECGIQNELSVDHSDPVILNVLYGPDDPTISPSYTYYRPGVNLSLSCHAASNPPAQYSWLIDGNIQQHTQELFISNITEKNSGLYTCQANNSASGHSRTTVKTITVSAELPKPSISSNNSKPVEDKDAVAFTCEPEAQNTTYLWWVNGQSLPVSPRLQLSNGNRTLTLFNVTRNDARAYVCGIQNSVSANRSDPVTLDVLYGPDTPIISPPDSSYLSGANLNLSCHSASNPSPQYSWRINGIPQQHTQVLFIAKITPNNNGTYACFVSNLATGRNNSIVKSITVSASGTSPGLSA

huNABA-avi-his [2] = target: T2, huNABA-avi-his (human, biotinylated in vivo at the avi tag); assay: SPR (Biacore), immobilized NABA-avi-his; bivalent affinity column (bivalent construct not described)
T2 construct: immobilized on the Biacore chip; also called NABA-avi-his reagent; N-A1-B3-A2
T2 chain: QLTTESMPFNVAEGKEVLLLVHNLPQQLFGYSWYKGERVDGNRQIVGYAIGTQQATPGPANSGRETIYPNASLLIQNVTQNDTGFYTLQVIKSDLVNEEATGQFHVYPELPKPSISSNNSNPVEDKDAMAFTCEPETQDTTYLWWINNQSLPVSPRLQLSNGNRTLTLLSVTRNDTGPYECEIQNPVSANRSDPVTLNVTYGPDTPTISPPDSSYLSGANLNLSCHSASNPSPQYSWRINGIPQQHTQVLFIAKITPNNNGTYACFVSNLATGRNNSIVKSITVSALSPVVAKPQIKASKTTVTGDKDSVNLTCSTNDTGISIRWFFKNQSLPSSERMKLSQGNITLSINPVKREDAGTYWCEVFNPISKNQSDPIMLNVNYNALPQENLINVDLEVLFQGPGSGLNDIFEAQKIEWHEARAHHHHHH

huNABA-avi-his [3] = target: T2, huNABA-avi-his; assay: SPR (Biacore), Fab over immobilized NABA-avi-his; monovalent affinity column
Method: For the exact analysis of the kinetic parameters, Fabs were purified from bacterial cultures. A 500 ml culture was inoculated and induced with 1 mM IPTG at an OD600 0.9. Bacteria were incubated at 25° C. overnight and harvested by centrifugation. After the incubation of the resuspended pellet for 20 min in 25 ml PPB buffer (30 mM Tris-HCl pH8, 1 mM EDTA, 20% sucrose), bacteria were centrifuged again and the supernatant was harvested. This incubation step was repeated once with 25 ml of a 5 mM MgSO₄ solution. The supernatants of both incubation steps were pooled, filtered and loaded on a IMAC column (His gravitrap, GE Healthcare). Subsequently, the column was washed with 40 volumes. After the elution (500 mM NaCl, 500 mM Imidazole, 20 mM NaH₂PO₄ pH 7.4) the eluate was re-buffered using PD 10 columns (GE Healthcare). The kinetic parameters of the purified Fabs were then studied by SPR-analysis in a dilution row that ranged from 200 nM to 6.25 nM.
Table 11, below, summarizes the affinity constants of the various affinity matured antibody sequences. The parental antibody PR1A3 is listed as well as several light chain and heavy chain combinations of matured and non matured sequences. All values were obtained by Biacore technology by measuring the association (kₒₙ) and dissociation (koff) rate constants of the various soluble antibody constructs in Fab format on a Biacore chip with immobilized NABA-avi-his reagent (SEQ ID NO 158) as the antigen. The affinity constant is labeled with KD.

huNABA-avi-his [4] = target: T2, huNABA-avi-his; assay: SPR (Biacore); antigen not given, taken as huNABA-avi-his
[5] = target: T1, membrane-bound human carcinoembryonic …; assay: flow cytometry on CEA-positive MKN45 target cells, antibodies as IgG [bottom panel]

B2: 1C8 Fab (hc/wt) (Fab, V domains shown)
VH: QVQLVQSGSELKKPGASVKVSCKASGYTFTEFGMNWVRQAPGQGLEWMGWINTKTGEATYVEEFKGRFVFSLDTSVSTAYLQISSLKAEDTAVYYCARWDFYHYVEAMDYWGQGTTVTVSS
VL: DIQMTQSPSSLSASVGDRVTITCKASQNVGTNVAWYQQKPGKAPKLLIYSASYRYSGVPSRFSGSGSGTDFTLTISSLQPEDFATYYCHQYYTYPLFTFGQGTKLEIK
notes: Fab format
Kd (huNABA-avi-his [2]): 0.693 nM
koff (huNABA-avi-his [2]): 0.000324 s⁻¹
kon (huNABA-avi-his [2]): 467000 M⁻¹ s⁻¹
Kd (huNABA-avi-his [3]): 586 nM
koff (huNABA-avi-his [3]): 0.0076 s⁻¹
kon (huNABA-avi-his [3]): 12900 M⁻¹ s⁻¹
Kd (huNABA-avi-his [4]): 586 nM

B3: Affinity Matured CDRH-3 construct with CDR-H3 SEQ ID NO:34 (WDFAYYFQTMDY) (Fab, V domains shown)
VH: QVQLVQSGSELKKPGASVKVSCKASGYTFTEFGMNWVRQAPGQGLEWMGWINTKTGEATYVEEFKGRFVFSLDTSVSTAYLQISSLKAEDTAVYYCARWDFAYYFQTMDYWGQGTTVTVSS
VL: DIQMTQSPSSLSASVGDRVTITCKASQNVGTNVAWYQQKPGKAPKLLIYSASYRYSGVPSRFSGSGSGTDFTLTISSLQPEDFATYYCHQYYTYPLFTFGQGTKLEIK
Kd (huNABA-avi-his [4]): 44 nM

B6: H3 Full (5) 19 Fab (hc/wt) (Fab, V domains shown)
VH: QVQLVQSGSELKKPGASVKVSCKASGYTFTEFGMSWVRQAPGQGLEWMGWINTKTGEATYVEEFKGRFVFSLDTSVSTAYLQISSLKAEDTAVYYCARWDAFEYVKALDYWGQGTTVTVSS
VL: DIQMTQSPSSLSASVGDRVTITCKASQNVGTNVAWYQQKPGKAPKLLIYSASYRYSGVPSRFSGSGSGTDFTLTISSLQPEDFATYYCHQYYTYPLFTFGQGTKLEIK
Kd (huNABA-avi-his [2]): 0.19 nM
koff (huNABA-avi-his [2]): 0.000175 s⁻¹
kon (huNABA-avi-his [2]): 902000 M⁻¹ s⁻¹

B7: Affinity Matured CDRH-3 construct with CDR-H3 SEQ ID NO:33 (WDFAHYFQTMDY) (Fab, V domains shown)
VH: QVQLVQSGSELKKPGASVKVSCKASGYTFTEFGMNWVRQAPGQGLEWMGWINTKTGEATYVEEFKGRFVFSLDTSVSTAYLQISSLKAEDTAVYYCARWDFAHYFQTMDYWGQGTTVTVSS
VL: DIQMTQSPSSLSASVGDRVTITCKASQNVGTNVAWYQQKPGKAPKLLIYSASYRYSGVPSRFSGSGSGTDFTLTISSLQPEDFATYYCHQYYTYPLFTFGQGTKLEIK
Kd (huNABA-avi-his [4]): 59 nM

The next lines start with the values.

EC50 (read off the curve) [1]: ~0.6 µg/mL
B1: CH7A / CL1A rH11 antibody (parent heavy chain with affinity matured light chain) (antibody, human IgG1, V domains shown)
VH: QVQLVQSGSELKKPGASVKVSCKASGYTFTEFGMNWVRQAPGQGLEWMGWINTKTGEATYVEEFKGRFVFSLDTSVSTAYLQISSLKAEDTAVYYCARWDFYDYVEAMDYWGQGTTVTVSS
VL: DIQMTQSPSSLSASVGDRVTITCKASQTVSANVAWYQQKPGKAPKLLIYLASYRYRGVPSRFSGSGSGTDFTLTISSLQPEDFATYYCHQYYTYPLFTFGQGTKLEIKR
notes: also called CLA1 rH11

Kd (huNABA-avi-his [4]): 69 nM
B4: Affinity Matured CDRH-3 construct with CDR-H3 SEQ ID NO:35 (WDFAYYLEAMDY) (Fab, V domains shown)
VH: QVQLVQSGSELKKPGASVKVSCKASGYTFTEFGMNWVRQAPGQGLEWMGWINTKTGEATYVEEFKGRFVFSLDTSVSTAYLQISSLKAEDTAVYYCARWDFAYYLEAMDYWGQGTTITVSS
VL: DIQMTQSPSSLSASVGDRVTITCKASQNVGTNVAWYQQKPGKAPKLLIYSASYRYSGVPSRFSGSGSGTDFTLTISSLQPEDFATYYCHQYYTYPLFTFGQGTKLEIK

EC50 (read off the curve) [5]: ~0.7 µg/mL
B5: humanized PR1A3 antibody comprising heavy chain variable region construct CH7A and light chain variable region construct CL1A (antibody, V domains shown)
VH: QVQLVQSGSELKKPGASVKVSCKASGYTFTEFGMNWVRQAPGQGLEWMGWINTKTGEATYVEEFKGRFVFSLDTSVSTAYLQISSLKAEDTAVYYCARWDFYDYVEAMDYWGQGTTVTVSS
VL: DIQMTQSPSSLSASVGDRVTITCKASQNVGTNVAWYQQKPGKAPKLLIYSASYRYSGVPSRFSGSGSGTDFTLTISSLQPEDFATYYCHQYYTYPLFTFGQGTKLEIK
notes: also called CH7A CL1A; CH7A, CL1A
